The values below come from patent US20250283886A1.

For this test, the target named is polypeptides with a terminal leucine residue. Description: single-molecule dwell time analysis, distribution of mean pulse durations, Leu; filtered 0.00s≤dur≤20.00s and magnitude above baseline > 15.0.

B1: S. elongatus ClpS2 (protein)
chain: MSPQPDESVLSILGVPRPCVKKRSRNDAFVLTVLTCSLQAIAAPATAPGTTTTRVRQPYPHFRVIVLDDDVNTFQHVAECLLKYIPGMTGDRAWDLTNQVHYEGAATVWSGPQEQAELYHEQLRREGLTMAPLEAA
On to B1, for which the mean pulse duration (value at the dashed line) came out at 0.35 s.
